B1: DVD573 (bispecific antibody, human IgG1, kappa)
heavy: not shown
light: DIVLTQSPDSLAVSLGERVTMNCKSSQSLLNSGMRKSFLAWYQQKPGQSPKLLIYWASTRESGVPDRFTGSGSGTDFTLTISSVQAEDVAVYYCKQSYHLFTFGSGTKLEIKRTVAAPDIQMTQSPSSLSASVGDRVTITCRASQDVSTAVAWYQQKPGKAPKLLIYSASFLYSGVPSRFSGSGSGTDFTLTISSLQPEDFATYYCQQSYTTPPTFGQGTKVEIKRTVAAPSVFIFPPSDEQLKSGTASVVCLLNNFYPREAKVQWKVDNALQSGNSQESVTEQDSKDSTYSLSSTLTLSKADYEKHKVYACEVTHQGLSSPVTKSFNRGEC
notes: also called DVD573H; DVD573L
B2: DVD575 (bispecific antibody, human IgG1, kappa)
heavy: not shown
light: DIVLTQSPDSLAVSLGERVTMNCKSSQSLLNSGMRKSFLAWYQQKPGQSPKLLIYWASTRESGVPDRFTGSGSGTDFTLTISSVQAEDVAVYYCKQSYHLFTFGSGTKLEIKRTVAAPDIQMTQSPSSLSASVGDRVTITCRASQVIRRSLAWYQQKPGKAPKLLIYAASNLASGVPSRFSGSGSGTDFTLTISSLQPEDFATYYCQQSNTSPLTFGQGTKVEIKRTVAAPSVFIFPPSDEQLKSGTASVVCLLNNFYPREAKVQWKVDNALQSGNSQESVTEQDSKDSTYSLSSTLTLSKADYEKHKVYACEVTHQGLSSPVTKSFNRGEC
notes: DVD-Ig, N-term PlGF (AB047) / C-term VEGF (AB071); also called DVD575H; DVD575L
B3: DVD581 (bispecific antibody, human IgG1, kappa)
heavy: not shown
light: DIVLTQSPDSLAVSLGERVTMNCKSSQSLLNSGMRKSFLAWYQQKPGQSPKLLIYWASTRESGVPDRFTGSGSGTDFTLTISSVQAEDVAVYYCKQSYHLFTFGSGTKLEIKRTVAAPSVFIFPPDIQMTQSPSSLSASVGDRVTITCRASQDVSTAVAWYQQKPGKAPKLLIYSASFLYSGVPSRFSGSGSGTDFTLTISSLQPEDFATYYCQQSYTTPPTFGQGTKVEIKRTVAAPSVFIFPPSDEQLKSGTASVVCLLNNFYPREAKVQWKVDNALQSGNSQESVTEQDSKDSTYSLSSTLTLSKADYEKHKVYACEVTHQGLSSPVTKSFNRGEC
notes: also called DVD581H; DVD581L
B4: DVD476 (bispecific antibody, human IgG1, kappa)
heavy: not shown
light: DIQMTQSPSSLSASVGDRVTITCSASQDISNYLNWYQQKPGKAPKVLIYFTSSLHSGVPSRFSGSGSGTDFTLTISSLQPEDFATYYCQQYSTVPWTFGQGTKVEIKRTVAAPDIQMTQSPSSLSASVGDRVTITCRASQDVSTAVAWYQQKPGKAPKLLIYSASFLYSGVPSRFSGSGSGTDFTLTISSLQPEDFATTYYCQQSYTGTVTFGQGTKVEIKRTVAAPSVFIFPPSDEQLKSGTASVVCLLNNFYPREAKVQWKVDNALQSGNSQESVTEQDSKDSTYSLSSTLTLSKADYEKHKVYACEVTHQGLSSPVTKSFNRGEC
B5: DVD470 (bispecific antibody, human IgG1, kappa)
heavy: not shown
light: DIQMTQSPSSLSASVGDRVTITCSASQDISNYLNWYQQKPGKAPKVLIYFTSSLHSGVPSRFSGSGSGTDFTLTISSLQPEDFATYYCQQYSTVPWTFGQGTKVEIKRTVAAPSVFIFPPDIQMTQSPSSLSASVGDRVTITCRASQDVSTAVAWYQQKPGKAPKLLIYSASFLYSGVPSRFSGSGSGTDFTLTISSLQPEDFATTYYCQQSYTGTVTFGQGTKVEIKRTVAAPSVFIFPPSDEQLKSGTASVVCLLNNFYPREAKVQWKVDNALQSGNSQESVTEQDSKDSTYSLSSTLTLSKADYEKHKVYACEVTHQGLSSPVTKSFNRGEC
B6: DVD482 (bispecific antibody, human IgG1, kappa)
heavy: not shown
light: B5 light
B7: DVD474 (bispecific antibody, human IgG1, kappa)
heavy: not shown
light: DIQMTQSPSSLSASVGDRVTITCRASQVIRRSLAWYQQKPGKAPKLLIYAASNLASGVPSRFSGSGSGTDFTLTISSLQPEDFATYYCQQSNTSPLTFGQGTKVEIKRTVAAPSVFIFPPDIQMTQSPSSLSASVGDRVTITCRASQDVSTAVAWYQQKPGKAPKLLIYSASFLYSGVPSRFSGSGSGTDFTLTISSLQPEDFATTYYCQQSYTGTVTFGQGTKVEIKRTVAAPSVFIFPPSDEQLKSGTASVVCLLNNFYPREAKVQWKVDNALQSGNSQESVTEQDSKDSTYSLSSTLTLSKADYEKHKVYACEVTHQGLSSPVTKSFNRGEC
B8: DVD486 (bispecific antibody, human IgG1, kappa)
heavy: not shown
light: B7 light
B9: AB071 (antibody, human IgG1, kappa, L234A L235A, V domains shown)
VH: EVQLVESGGGLVQPGGSLRLSCAASGFTINASWIHWVRQAPGKGLEWVGAIYPYSGYTNYADSVKGRFTISADTSKNTAYLQMNSLRAEDTAVYYCARWGHSTSPWAMDYWGQGTLVTVSS
VL: DIQMTQSPSSLSASVGDRVTITCRASQVIRRSLAWYQQKPGKAPKLLIYAASNLASGVPSRFSGSGSGTDFTLTISSLQPEDFATYYCQQSNTSPLTFGQGTKVEIKR
B10: DVD485 (bispecific antibody, human IgG1, kappa)
heavy: not shown
light: DIQMTQSPSSLSASVGDRVTITCRASQDVSTAVAWYQQKPGKAPKLLIYSASFLYSGVPSRFSGSGSGTDFTLTISSLQPEDFATTYYCQQSYTGTVTFGQGTKVEIKRTVAAPSVFIFPPDIQMTQSPSSLSASVGDRVTITCRASQVIRRSLAWYQQKPGKAPKLLIYAASNLASGVPSRFSGSGSGTDFTLTISSLQPEDFATYYCQQSNTSPLTFGQGTKVEIKRTVAAPSVFIFPPSDEQLKSGTASVVCLLNNFYPREAKVQWKVDNALQSGNSQESVTEQDSKDSTYSLSSTLTLSKADYEKHKVYACEVTHQGLSSPVTKSFNRGEC
B11: DVD471 (bispecific antibody, human IgG1, kappa, L234A L235A)
heavy: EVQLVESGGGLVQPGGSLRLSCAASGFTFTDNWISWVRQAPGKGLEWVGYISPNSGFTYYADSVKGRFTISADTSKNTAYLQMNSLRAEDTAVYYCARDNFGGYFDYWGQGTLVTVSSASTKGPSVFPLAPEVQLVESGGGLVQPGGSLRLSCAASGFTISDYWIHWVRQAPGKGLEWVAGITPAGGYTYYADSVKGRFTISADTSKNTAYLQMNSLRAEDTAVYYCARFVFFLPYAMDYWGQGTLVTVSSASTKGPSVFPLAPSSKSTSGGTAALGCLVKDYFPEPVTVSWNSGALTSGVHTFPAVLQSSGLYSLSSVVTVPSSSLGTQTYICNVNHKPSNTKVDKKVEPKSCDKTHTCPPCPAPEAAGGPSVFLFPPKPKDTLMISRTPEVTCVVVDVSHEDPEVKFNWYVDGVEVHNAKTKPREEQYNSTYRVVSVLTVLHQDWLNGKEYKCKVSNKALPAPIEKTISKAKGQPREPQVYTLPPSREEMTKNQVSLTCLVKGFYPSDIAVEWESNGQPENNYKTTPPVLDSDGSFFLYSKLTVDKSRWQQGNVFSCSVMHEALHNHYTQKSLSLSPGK
light: DIQMTQSPSSLSASVGDRVTITCRASQDVSTAVAWYQQKPGKAPKLLIYSASFLYSGVPSRFSGSGSGTDFTLTISSLQPEDFATTYYCQQSYTGTVTFGQGTKVEIKRTVAAPSVFIFPPDIQMTQSPSSLSASVGDRVTITCRASQDVSTAVAWYQQKPGKAPKLLIYSASFLYSGVPSRFSGSGSGTDFTLTISSLQPEDFATYYCQQSYTTPPTFGQGTKVEIKRTVAAPSVFIFPPSDEQLKSGTASVVCLLNNFYPREAKVQWKVDNALQSGNSQESVTEQDSKDSTYSLSSTLTLSKADYEKHKVYACEVTHQGLSSPVTKSFNRGEC
B12: DVD034 (bispecific antibody, human IgG1, kappa)
heavy: not shown
light: DIQMTQSPSSVSASVGDRVTITCRASQGISSWLAWYQQKPGKAPNLLIYEASSLQSGVPSRFGGSGSGTDFTLTISSLQPEDFATYYCQQANGFPWTFGQGTKVEIKRTVAAPDVVMTQSPLSLPVTPGEPASISCRSSQSLLHSNGFNYVDWYLQKPGQSPHLLIYFGSYRASGVPDRFSGSGSGTDFTLKISRVEAEDVGVYYCMQALQTPPWTFGQGTKVEIRRTVAAPSVFIFPPSDEQLKSGTASVVCLLNNFYPREAKVQWKVDNALQSGNSQESVTEQDSKDSTYSLSSTLTLSKADYEKHKVYACEVTHQGLSSPVTKSFNRGEC
notes: N-terminal VD HGF, C-terminal VD RON; also called DVD034H; DVD034L
B13: AB012 (antibody, human IgG1, kappa, V domains shown)
VH: QVQLVESGGGLVKPGGSLRLSCAASGFTFSDYYMSWIRQAPGKGLEWVSYISSSGSTIYYADSVKGRFTISRDNAKNSLYLQMNSLRAEDTAVYYCARDEYNSGWYVLFDYWGQGTLVTVSS
VL: DIQMTQSPSSVSASVGDRVTITCRASQGISSWLAWYQQKPGKAPNLLIYEASSLQSGVPSRFGGSGSGTDFTLTISSLQPEDFATYYCQQANGFPWTFGQGTKVEIKR
B14: AB008 (antibody, human IgG1, kappa, V domains shown)
VH: QVQLVQSGAEVKKPGSSVKVSCKASGYTFTSYWLHWVRQAPGQGLEWIGYINPRNDYTEYNQNFKDKATITADESTNTAYMELSSLRSEDTAFYFCARRDITTFYWGQGTTVTVSS
VL: DIQLTQSPSSLSASVGDRVTMSCKSSQSVLYSANHKNYLAWYQQKPGKAPKLLIYWASTRESGVPSRFSGSGSGTDFTFTISSLQPEDIATYYCHQYLSSWTFGGGTKLEIKR
B15: DVD045 (bispecific antibody, human IgG1, kappa)
heavy: not shown
light: DIQMTQSPSSLSASVGDRVTITCSASQDISNYLNWYQQKPGKAPKVLIYFTSSLHSGVPSRFSGSGSGTDFTLTISSLQPEDFATYYCQQYSTVPWTFGQGTKVEIKRTVAAPDIQMTQSPSSVSASVGDRVTITCRASQGISSWLAWYQQKPGKAPNLLIYEASSLQSGVPSRFGGSGSGTDFTLTISSLQPEDFATYYCQQANGFPWTFGQGTKVEIKRTVAAPSVFIFPPSDEQLKSGTASVVCLLNNFYPREAKVQWKVDNALQSGNSQESVTEQDSKDSTYSLSSTLTLSKADYEKHKVYACEVTHQGLSSPVTKSFNRGEC
B16: AB012 (antibody, human IgG1, kappa, V domains shown)
VH: B13 VH
VL: B13 VL

What follows are binders tested against T1, placental growth factor (PLGF) (UniProt P49763-2 21-149, limits assumed) (assay: ligand-receptor binding competition assay, PlGF binding to VEGFR1; N-terminal VD).
T1 construct: also called P1GF
T1 sequence (looked up): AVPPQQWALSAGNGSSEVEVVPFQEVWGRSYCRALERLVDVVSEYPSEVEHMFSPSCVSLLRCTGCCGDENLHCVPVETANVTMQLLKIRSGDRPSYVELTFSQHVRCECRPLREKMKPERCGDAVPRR

IC50 [nM]	Binder
2.59	B1
2.9	B2
3.5	B3

What follows are binders tested against recombinant human VEGF165 (human, UniProt P15692-4 27-191) (assay: cell-based or functional assay).
Chain of recombinant human VEGF165 (P15692 other isoform, or with tags, fused parts or gaps limits assumed): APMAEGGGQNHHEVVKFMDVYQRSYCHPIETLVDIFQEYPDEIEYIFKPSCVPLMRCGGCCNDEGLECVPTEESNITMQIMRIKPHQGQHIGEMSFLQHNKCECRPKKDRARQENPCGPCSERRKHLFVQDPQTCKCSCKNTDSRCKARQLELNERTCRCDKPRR

inhibition of HUVEC proliferation (IC50) [nM]	Binder
0.24	B4
0.45	B5
0.32	B6
0.42	B7
0.88	B8
2.5	B9
59.5	B10
6.8	B11

The binders below were run against T2, HGF (UniProt P14210 32-728) (assay: Biacore SPR).
T2 construct: Bought reagent
T2 sequence (P14210 32-728 limits assumed): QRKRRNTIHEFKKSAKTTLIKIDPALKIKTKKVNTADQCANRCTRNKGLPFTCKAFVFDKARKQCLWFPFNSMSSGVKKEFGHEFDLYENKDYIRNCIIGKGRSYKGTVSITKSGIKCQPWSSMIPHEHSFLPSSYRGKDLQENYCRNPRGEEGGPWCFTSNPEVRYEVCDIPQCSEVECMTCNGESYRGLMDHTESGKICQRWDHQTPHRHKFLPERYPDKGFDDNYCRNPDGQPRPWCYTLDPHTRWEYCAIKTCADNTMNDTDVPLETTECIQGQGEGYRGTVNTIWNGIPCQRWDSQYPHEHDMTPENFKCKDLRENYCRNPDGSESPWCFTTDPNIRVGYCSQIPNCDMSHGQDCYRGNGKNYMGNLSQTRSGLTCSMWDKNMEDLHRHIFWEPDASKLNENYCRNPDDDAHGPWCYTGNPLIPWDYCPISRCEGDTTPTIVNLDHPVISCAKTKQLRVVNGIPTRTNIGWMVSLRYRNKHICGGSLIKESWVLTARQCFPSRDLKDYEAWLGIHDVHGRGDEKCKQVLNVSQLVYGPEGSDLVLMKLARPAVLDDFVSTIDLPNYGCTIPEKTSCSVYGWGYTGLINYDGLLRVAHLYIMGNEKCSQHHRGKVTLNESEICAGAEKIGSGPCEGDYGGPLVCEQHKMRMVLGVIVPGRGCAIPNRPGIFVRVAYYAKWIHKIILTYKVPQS
Experimental: The BIACORE assay (Biacore, Inc, Piscataway, N.J.) determines the affinity of antibodies or DVD-Ig with kinetic measurements of on-rate and off-rate constants. Binding of antibodies or DVD-Ig to a target antigen (for example, a purified recombinant target antigen) is determined by surface plasmon resonance-based measurements with a Biacore® 1000 or 3000 instrument (Biacore® AB, Uppsala, Sweden) using running HBS-EP (10 mM HEPES [pH 7.4], 150 mM NaCl, 3 mM EDTA, and 0.005% surfactant P20) at 25° C. […] For example, approximately 5000 RU of goat anti-mouse IgG, (Fcγ), fragment specific polyclonal antibody (Pierce Biotechnology Inc, Rockford, Ill.) diluted in 10 mM sodium acetate (pH 4.5) is directly immobilized across a CM5 research grade biosensor chip using a standard amine coupling kit according to manufacturer's instructions and procedures at 25 μg/ml. Unreacted moieties on the biosensor surface are blocked with ethanolamine. Modified carboxymethyl dextran surface in flowcell 2 and 4 is used as a reaction surface. Unmodified carboxymethyl dextran without goat anti-mouse IgG in flow cell 1 and 3 is used as the reference surface. For kinetic analysis, rate equations derived from the 1:1 Langmuir binding model are fitted simultaneously to association and dissociation phases of all eight injections (using global fit analysis) with the use of Biaevaluation 4.0.1 software. Purified antibodies or DVD-Ig are diluted in HEPES-buffered saline for capture across goat anti-mouse IgG specific reaction surfaces. Antibodies or DVD-Ig to be captured as a ligand (25 μg/ml) are injected over reaction matrices at a flow rate of 5 μl/min. The association and dissociation rate constants, kₒₙ (M⁻¹s⁻¹) and koff (s⁻¹) are determined under a continuous flow rate of 25 μl/min. Rate constants are derived by making kinetic binding measurements at different antigen concentrations ranging from 10-200 nM. The equilibrium dissociation constant (M) of the reaction between antibodies or DVD-Igs and the target antigen is then calculated from the kinetic rate constants by the following formula: KD=koff/kₒₙ. Binding is recorded as a function of time and kinetic rate constants are calculated.

Kd [nM]	koff [s⁻¹]	kon [M⁻¹ s⁻¹]	Binder
0.0215	6.55e-05	3.05e+06	B12
< 0.0284	0.000284	> 1e+07	B13

What follows are binders tested against recombinant human HGF (human, UniProt P14210 32-728) (assay: cell-based or functional assay).
Chain of recombinant human HGF (P14210 32-728 limits assumed): as above

Inhibition Of Akt Phosphorylation (% Inhibition At 6.7 nM Ab/DVD) [%]	Inhibition Of Akt Phosphorylation (% Inhibition At 67 nM Ab/DVD) [%]	Inhibition Of Akt Phosphorylation (% Inhibition At 0.67 nM Ab/DVD) [%]	Binder
-13	8		B14
-2	64	-15	B15
110	106	79	B16
